Paper PMC6783348

Target: CD8a extracellular domain (Homo sapiens, UniProt P01732 22-182)
Assay: BLI

Chain of CD8a extracellular domain (P01732 22-182): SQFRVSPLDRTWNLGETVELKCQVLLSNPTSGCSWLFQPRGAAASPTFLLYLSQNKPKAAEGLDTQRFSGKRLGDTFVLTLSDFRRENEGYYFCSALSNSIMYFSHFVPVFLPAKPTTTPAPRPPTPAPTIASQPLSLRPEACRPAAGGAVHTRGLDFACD

Row | Binder | Kd
1 | A3 (structured_DNA) DNA: ATCCAGAGTGACGCAGCAACAGAGGTGTAGAAGTACACGTGAACAAGCTTGAAATTGTCTCTGACAGAGGTGGACACGGTGGCTTAGT | 14.7 ± 0.1 nM
2 | A8 (structured_DNA) DNA: ATCCAGAGTGACGCAGCAGCTCGATCGTATAGCCGTGACGCAGCTTGAAATGGGATCGCGTCCACAGTTTTGGACACGGTGGCTTAGT | 5.59 ± 0.11 nM
